Test results published in patent US20260234247A1.

Experiments:
[1] = molecular target: Cynomolgus LILRB2 on CHOK1 cells (cynomolgus); assay: flow cytometry on CHOK1-cyno LILRB2 cells
[2] = molecular target: Rhesus LILRB1 (NP_001035762.2) protein (rhesus macaque) (UniProt F7H3G7); assay: ELISA on rhesus LILRB1 (NP_001035762.2) protein
[3] = molecular target: Rhesus LILRB1 (NP_001035762.2) on CHOK1 cells (rhesus macaque) (UniProt F7H3G7); assay: flow cytometry on CHOK1-rhesus LILRB1 (NP_001035762.2) cells

| Binder | EC50 [1] | EC50 [2] | EC50 [3] |
| --- | --- | --- | --- |
| LK-RB1-11 (antibody, human IgG4 S228P, kappa, V domains shown) VH: QVTLKESGPGILQPSQTLSLTCSFSGFSLKTSGMSVGWIRQPSGKGLEWLAHIWWNDDKYYNPVLKGRLTISKDTSNNLVFLKIASVVSTDTATYYCVRYGNSHGYWYFDVWGTGTTVTVSS VL: NIVLTQSPASLAVSLGQRATISCRASESVDSYGNNFIHWYQQKPGQPPKVLIYYASNLEAGVPARFSGSGSRTDFTLTIDPVEAEDAATYYCQQNNEDPYTFGGGTKLEIER |  | 0.08 nM |  |
| LK-RB2-42 (antibody, human IgG4 S228P, kappa, V domains shown) VH: EFQLQQSGPELVKPGASVKISCKASGYSFTDYNMNWVKQSNGKSLDWIGIINPKYGTTAYNQKLRDKATLTVDQSSSTAYMQLNSLTSEDSAVYYCASLNWDEGFAYWGQGTLVTVSP VL: DVLMTQTPLSLPVSLGDQASISCRSSQSIVHSNGNTYLEWYLQKPGQPPKLLIYKVSNRFSGVPERFSGSGSGTDFTLKINRVEAEDLGVYYCFQGSLVPPTFGGGTKLEIKR | 2.86 nM |  |  |
| LK-RB2-30 (antibody, human IgG4 S228P, kappa, V domains shown) VH: EVQLVESGGGLVQPGGSLKLSCAASGFTFNTDGMSWVRQTPDKRLELVAIINSNGGSTYYPDSVKGRFTISRDNAKNTLYLQMSSLKSEDTAMYYCAREGSYGSWFAYWGQGTLVTVSA VL: DIQMTQSPASLSVSVGETVTITCRASENINNNLAWYHQKQGKSPQLLVYAATNLADGVPSRFSGSGSGTQYSLKINSLQSEDFGSYYCQHFWGTPFTFGGGTKLEIKR | 1.04 nM |  |  |
| LK-RB2-31 (antibody, human IgG4 S228P, kappa, V domains shown) VH: QVQLQQPGAELVKPGASMKLSCKASGYTFTTYYMYWVKQRPGLGLEWIGGINPSNGGTTFNEKFKNKATLTVDKSSSTAYMQLRSLTSEDSAVYYCTRWRFFDVWGAGTTVTVSS VL: SIVMTQTPEFLLVSAGDRVTITCKASQSVNNDVAWFQQKPGQSPKLLIYYASNRYTGVPDRFTGSGYGTDFTFTISTVQAEDLAIYFCQQDYSSPPTFGGATKLEIKR | 1.59 nM |  |  |
| LK-RB2-32 (antibody, human IgG4 S228P, kappa, V domains shown) VH: DVQLQESGPGLVKPSQSLSLTCSVTGYSITSGYYWNWIRQFPGNKLEWMGYISFDGSNHYNPSLRNRISITRDTFKNQFFLKLNSVTTEDTATFYCTRRDYNWFAYWGQGTLVTVSA VL: DIVLTQSPVTLSVTPGDSVSLSCRASQNINKNLHWYQQRSHESPRLLIKYVSQSISGIPSRFSGSGSGTDFTLSINSVETEDFGMYFCQQSNSWPLTFGAGTKLELRR | 5.72 nM |  |  |
| LK-RB2-27 (antibody, human IgG4 S228P, kappa, V domains shown) VH: DVKLVESGGGLVKPGGSLKLSCAASGFTFSSYSMSWVRQTPEKRLEWVATISTGGSYTYYPDSVKGRFTISRDNAKNTLYLQMSSLKSEDTAMFYCTRGSMDYWGQGTSVTVSS VL: DILMTQSPSSMSVSLGDTVSITCHASQDISSNIGWLQQKPGNSFKGLIYHGTNLEDGVPSRFSGSGSGADYSLTISSLESEDFADYYCVQYAQFPYTFGGGTKLEIKR | 2.14 nM |  |  |
| LK-RB2-34 (antibody, human IgG4 S228P, kappa, V domains shown) VH: DVKVVESGGGLVKPGGSLKLSCAASGFTFSSYSMSWVRQTPEKRLEWVATISTGSSYTYYSDSVKGRFTISRDNAKNTLYLQMSSLKSEDTAMFYCTRGSMDYWGQGTSVTVSS VL: DILMTQSPSSMSVSLGDTVSITCHASQDISSNIGWLQQKPGNSFKGLIYHGINLEDGVPSRFSGSGSGADYSLTISSLESEDFADYYCVQYAQFPYTFGGGTKLEIKR | 2.3 nM |  |  |
| LK-RB2-29 (antibody, human IgG4 S228P, kappa, V domains shown) VH: QVQLQQSGAELARPGASVKLSCKASGYTFTSYWMQWVKQRPGQGLEWIGAIYPGDGDTRYTQKFKGKATLTADKSSSTAYMQLSSLASEDSAVYYCARGYYGSSYADYFDYWGQGTTLTVSS VL: DIQMTQSPASLSASVGETVTITCRASGNIHNYLAWYQQKQGKSPQLLVYNAKTLADGVPSRFSGSGSGTQYSLKINSLQPEDFGSYYCQHFWSTPPTFGGGTKLEIKR | 2.09 nM |  |  |

Results, then the binder that gave them:

| EC50 [1] | EC50 [2] | EC50 [3] | Binder |
| --- | --- | --- | --- |
| 1.5 nM |  |  | LK-RB2-41 (antibody, human IgG4 S228P, kappa, V domains shown) VH: EVQLQLSGPELVKPGASVKMSCKASGYTFTDYNMHWVKQSHGKSLEWIGYINPNNGGTTYNQKFKGKATLTVNKSSSTAYMELRSLTSEDSAVYYCARAPYYGSSYLLAYWGQGTLVTVSA VL: DIVMTQSHKFMSTSVGDRVSITCKASQDVSTAVAWYQQKPGQSPKLLIYSASYRYTGVPDRFTGSGSGTDFTFTISSVQAEDLAIYYCQQHYSIPWTFGGGTKLEIKR |
| 2.11 nM |  |  | LK-RB2-26 (antibody, human IgG4 S228P, kappa, V domains shown) VH: QVQLKESGPGLVAPSQSLSITCTVSGFSLTSYGVHWVRQPPGKGLEWLGVIWAGGSTDYNAAFISRLNISKDISESQVFFRMNSLQTDDTAMYYCARDQMVRSAMDYWGQGTSVTVSS VL: DIQMIQSPSSMFASLGDRVSLSCRASQGIRGNLDWYQQKPGGTIKLLIYSTSNLNSAVPSRFSGSGSGSDYSLTISNLESEDFADYYCLQRNASPYTFGGGTKLEIKR |
|  | 0.05 nM | 1.08 nM | LK-RB1-5 (antibody, human IgG4 S228P, kappa, V domains shown) VH: QVQLQQPGAELVKPGASVKLSCKASGYTFTDFWIHWVKQRPGQGLEWIGMIHPNSGSTNFNEKFRAKATLTVDKSSSTAYMRLSSLTSEDSAVYYCARSGDGYSNPMDYWGQGTSVTVSS VL: QIVLSQSPAILSASPGEKVTLTCRASSSVSYMHWYQQKPGSSPKPWIYATSNLASGVPVRFSGSGSGTSYSLTISRMQTEDAATYYCQQWRRSPYTFGGGTKLEIKR |
| 2.03 nM |  |  | LK-RB2-28 (antibody, human IgG4 S228P, kappa, V domains shown) VH: DVKLVESGGGLVKPGGSLKLSCAASGFTFSSYSMSWVRQTPEKRLEWVATISTGGSYTYYPDSMKGRFTISRDNAKNTLYLQMSSLKSEDTAMFYCTRGSMDYWGQGTSVTVSS VL: DILMTQSPSSMSVSLGDTVSIACHASQDISSNIGWLQQKPGNSFKGLIYHGTNLEDGVPSRFSGSGSGADYSLTISSLESEDFADYYCVQYAQFPYTFGGGTKLEIKR |
